Like-named read-outs stand apart in the source and are kept apart here.
T1: GTP-loaded Ras1.G17V (1-172) (fission yeast (Schizosaccharomyces …, UniProt P08647 1-172, G17V))
T1 sequence (looked up): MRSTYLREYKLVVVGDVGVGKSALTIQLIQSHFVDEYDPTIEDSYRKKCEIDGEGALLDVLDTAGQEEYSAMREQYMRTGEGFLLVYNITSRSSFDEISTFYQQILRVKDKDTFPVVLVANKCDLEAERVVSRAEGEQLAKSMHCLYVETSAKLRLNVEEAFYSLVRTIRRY


Experiments:
[1] = molecular target: T1, GTP-loaded Ras1.G17V (1-172); experiment: pull-down
[2] = molecular target: T1, GTP-loaded Ras1.G17V (1-172); experiment: pull-down; remark: listed apart in the source

binding result [1] | binding result [2] | Binder
binds | – | GST-Scd1 (760-872) (domain or fragment, UniProt P40995 760-872, looked up) SSSTSTSLSVRNTTNVKIRLRLHEVSLVLVVAHDITFDELLAKVEHKIKLCGILKQAVPFRVRLKYVDEDGDFITITSDEDVLMAFETCTFELMDPVHNKGMDTVSLHVVVYF
– | binds | Scd1 (760-872) fragment (domain or fragment, UniProt P40995 760-872, looked up) SSSTSTSLSVRNTTNVKIRLRLHEVSLVLVVAHDITFDELLAKVEHKIKLCGILKQAVPFRVRLKYVDEDGDFITITSDEDVLMAFETCTFELMDPVHNKGMDTVSLHVVVYF
binds | – | GST-Byr2 (65-180) (domain or fragment, UniProt P28829 65-180, looked up) REFPRPCILRFIACNGQTRAVQSRGDYQKTLAIALKKFSLEDASKFIVCVSQSSRIKLITEEEFKQICFNSSSPERDRLIIVPKEKPCPSFEDLRRSWEIELAQPAALSSQSSLSP

Reference: doi:10.1101/380220 (bioRxiv, 2019)
